From PMC2783927

T1: IL-17F homodimer (crystallised form: tag cleaved, lysine-methylated) (human), Q96PD4
T1 chain: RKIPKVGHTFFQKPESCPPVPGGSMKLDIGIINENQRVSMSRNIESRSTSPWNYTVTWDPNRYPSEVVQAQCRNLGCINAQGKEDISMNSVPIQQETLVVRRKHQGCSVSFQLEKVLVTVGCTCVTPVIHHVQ


Tests used:
[1] = molecular target: IL-17RA extracellular domain, C-terminally biotinylated (human) (UniProt Q96F46); assay: SPR
[2] = molecular target: IL-17RC extracellular domain, C-terminally biotinylated (UniProt Q8NAC3); assay: SPR
[3] = molecular target: IL-17F homodimer (for binding experiments) (human) (UniProt Q96PD4); assay: SEC
[4] = molecular target: IL-17RB-IL-25 complex, pre-assembled on the SPR chip (UniProt Q9NRM6); assay: SPR
[5] = molecular target: IL-17RC-IL-17A complex, pre-assembled on the SPR chip (UniProt Q8NAC3); assay: SPR
[6] = molecular target: IL-17RC-IL-17F complex, pre-assembled on the SPR chip (UniProt Q8NAC3); assay: SPR
[7] = molecular target: T1, IL-17F homodimer (crystallised form: …); assay: SDS-PAGE; conditions: remark: other sources report otherwise
[8] = molecular target: T1, IL-17F homodimer (crystallised form: …); assay: crystal structure; conditions: remark: other sources report otherwise

Chain of UniProt Q9NRM6 (Q9NRM6 18-292, chain 1 of 2): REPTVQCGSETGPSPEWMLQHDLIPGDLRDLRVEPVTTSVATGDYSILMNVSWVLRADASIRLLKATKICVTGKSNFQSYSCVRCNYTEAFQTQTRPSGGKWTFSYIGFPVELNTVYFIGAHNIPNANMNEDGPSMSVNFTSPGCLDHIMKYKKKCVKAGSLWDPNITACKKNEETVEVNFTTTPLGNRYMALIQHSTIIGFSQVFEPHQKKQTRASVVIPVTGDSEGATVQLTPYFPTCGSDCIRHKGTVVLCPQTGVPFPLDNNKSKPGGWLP
Chain of UniProt Q9NRM6 (Q9H293 33-177, chain 2 of 2, further chain): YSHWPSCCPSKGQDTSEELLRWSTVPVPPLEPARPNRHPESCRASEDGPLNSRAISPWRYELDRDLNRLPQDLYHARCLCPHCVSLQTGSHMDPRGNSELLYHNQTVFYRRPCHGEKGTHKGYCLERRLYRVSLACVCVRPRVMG

| Molecule | Kd [1] | Kd [2] | Kd [5] | other results |
| --- | --- | --- | --- | --- |
| IL-17A homodimer (from UniProt Q16552 24-155) (ligand) | 2.8 nM | 1.2 nM |  |  |
| IL-17F homodimer (for binding experiments) (from UniProt Q96PD4 31-163) (ligand) | 292 nM | 4.4 nM |  |  |
| IL-17RA extracellular domain, soluble (without BirA ligase tag) (receptor) |  |  | 0.162 µM | stoichiometry N (receptor per IL-17 dimer) [3]: 1; stoichiometry N (receptors per IL-17 dimer) [3]: 2; Kd [4]: 14.1 µM; Kd [6]: 23.8 µM |
| IL-17RC extracellular domain, soluble (without BirA ligase tag) (receptor) LERLVGPQDATHCSPVSLEPWGDEERLRVQFLAQQSLSLAPVTAATARTALSGLSGADGRREERGRGKSWVCLSLGGSGNTEPQKKGLSCRLWDSDILCLPGDIVPAPGPVLAPTHLQTELVLRCQKETDCDLCLRVAVHLAVHGHWEEPEDEEKFGGAADSGVEEPRNASLQAQVVLSFQAYPTARCVLLEVQVPAALVQFGQSVGSVVYDCFEAALGSEVRIWSYTQPRYEKELNHTQQLPDCRGLEVWNSIPSCWALPWLNVSADGDNVHLVLNVSEEQHFGLSLYWNQVQGPPKPRWHKNLTGPQIITLNHTDLVPCLCIQVWPLEPDSVRTNICPFREDPRAHQNLWQAARLQLLTLQSWLLDAPCSLPAEAALCWRAPGGDPCQPLVPPLSWENVTVDKVLEFPLLKGHPNLCVQVNSSEKLQLQECLWADSLGPLKDDVLLLETRGPQDNRSLCALEPSGCTSLPSKASTRAARLGEYLLQDLQSGQCLQLWDDDLGALWACPMDKYIHKR |  |  | 8 µM |  |
| IL-17F homodimer (crystallised form: tag cleaved, lysine-methylated), Q96PD4 31-163 (ligand, here or on the partner: reductive lysine methylation of the complex; reductive lysine methylation of the complex) RKIPKVGHTFFQKPESCPPVPGGSMKLDIGIINENQRVSMSRNIESRSTSPWNYTVTWDPNRYPSEVVQAQCRNLGCINAQGKEDISMNSVPIQQETLVVRRKHQGCSVSFQLEKVLVTVGCTCVTPVIHHVQ |  |  |  | stoichiometry N [7]: 2; stoichiometry N [8]: 2 |
